{"source": "patent US11485776B2", "about": "“Antibodies against infectious diseases” (priority 2015, dated 2022)", "molecules": {"B1": {"name": "CaS1 scFv: anti-CaENO1 scFv monoclonal antibody from chicken phage library; light chain SEQ ID NO:11, heavy chain SEQ ID NO:12 (antibody, V domains shown)", "VH": "TVTLDESGGGLQTPRGALSLVCKASGFTFIDYGMQWVRQAPGKGLEWVAGIGSSGSSTNYGAAVKGRATISRDDGQSTVRLQLNNLRAEDTGTYYCAKSAGGYCVNGAGCNGGSIDAWGHGTEVIVSS", "VL": "ALTQPSSVSANLGGTVKITCSGGSGSYGWYQQKSPGSAPVTVIYSNNQRPSNIPSRFSGSPSGSTGTLTITGVQADDEAVYFCGSRDSSYVGVFGAGTTLTVL", "modifications": "scFv linker; amino acid sequence comprised in a heavy chain of an anti-CaENO1 scFv monoclonal antibody (CaS1); amino acid sequence comprised in a light chain of an anti-CaENO1 scFv monoclonal antibody (CaS1)"}}, "key": {"hENO1": {"biological_target": "T1, hENO1 (Homo sapiens, UniProt P06733)", "T1 construct": "His; made in house; host or cells: E. coli BL21 (by 'in the same way')", "T1 sequence (P06733 whole entry)": "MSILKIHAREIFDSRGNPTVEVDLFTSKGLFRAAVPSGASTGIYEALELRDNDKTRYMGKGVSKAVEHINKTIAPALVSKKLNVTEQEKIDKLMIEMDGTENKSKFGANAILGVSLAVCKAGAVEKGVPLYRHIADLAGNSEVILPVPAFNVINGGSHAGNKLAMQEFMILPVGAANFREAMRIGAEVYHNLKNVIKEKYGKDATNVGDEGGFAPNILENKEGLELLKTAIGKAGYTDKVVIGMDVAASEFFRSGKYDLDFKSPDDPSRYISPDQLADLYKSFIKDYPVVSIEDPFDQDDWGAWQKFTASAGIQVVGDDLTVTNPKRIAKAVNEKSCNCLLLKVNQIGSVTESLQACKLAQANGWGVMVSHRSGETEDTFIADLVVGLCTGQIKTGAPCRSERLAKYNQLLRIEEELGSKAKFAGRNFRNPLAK", "assay": "Western blot on purified human ENO1 protein", "format": "binding", "source_text": "Lane M contained protein markers.\nThe ImageQuant LAS4500 was used for ECL intensity detection."}, "[1]": {"biological_target": "T2, alpha-enolase on the surface of C. albicans (Candida albicans, UniProt P30575)", "T2 construct": "endogenous in cells; host or cells: C. albicans SC 5314 and clinical isolates CA6-17, CA7-26, CA7-3, CA10-50, CA7-30, CA10-65", "T2 sequence (P30575 whole entry)": "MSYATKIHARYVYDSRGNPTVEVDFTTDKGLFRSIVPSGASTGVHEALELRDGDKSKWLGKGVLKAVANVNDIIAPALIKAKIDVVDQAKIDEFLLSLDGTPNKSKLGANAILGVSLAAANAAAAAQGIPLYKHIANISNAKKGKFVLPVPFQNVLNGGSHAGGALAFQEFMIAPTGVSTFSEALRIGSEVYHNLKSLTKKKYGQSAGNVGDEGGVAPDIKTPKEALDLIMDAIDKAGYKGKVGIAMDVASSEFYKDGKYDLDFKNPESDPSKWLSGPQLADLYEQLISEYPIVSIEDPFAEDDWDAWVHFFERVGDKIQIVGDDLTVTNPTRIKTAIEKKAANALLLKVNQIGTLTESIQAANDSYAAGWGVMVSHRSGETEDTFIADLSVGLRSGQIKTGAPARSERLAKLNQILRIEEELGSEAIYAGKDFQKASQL", "assay": "Immunofluorescence staining of C. albicans", "format": "cell-based", "source_text": "Anti-CaENO1 antibodies were used to detect alpha-enolase protein on C. albicans cell surface ENO1. (1) Detected with anti-CaENO1 IgY and developed by FITC conjugation rabbit anti-chicken antibodies. (2) Detected with scFv CaS1 and developed by goat anti-chicken light chain antibodies and FITC rabbit anti-goat antibodies. (3) An irrelevant scFv was used on negative control.\nAnti-CaENO1 IgY, scFv CaS1 and control scFv were used in immunofluorescence assay for identification of CaS1 antibody to alpha-enolase on cell surface of C. albicans."}, "C. albicans": {"system": "C. albicans", "assay": "C. albicans hyphal formation", "format": "cell-based", "conditions": "CaS1 scFv pre-incubated with 10^3 cfu, 5 days at 37° C.", "protocol": "(A) C. albicans were cultured in YPD medium overnight at 37° C. 10^8 cfu/ml of C. albicans was mixed with equal volume of 0.5 mg/ml anti-CaENO1 IgY, 0.5 mg/ml CaS1 scFv or 1×PBS, respectively, at room temperature for 1 hr. 1 ul of each mixture in 10× dilutions was spotted on YPD agar plate and incubated at 37° C. overnight. (B) 10^3 cfu of C. albicans was mixed with PBS (control), 10 or 100 µg/ml CaS1 scFv at room temperature for 1 hr. 1 ul of each mixture was spotted on YPD agar plate and incubated at 37° C. for 5 days. The hyphal formation was observed under the microscope.\nTo determine the effect of scFv antibodies on the cell growth and hyphal formation, anti-CaENO1 IgY (0.5 mg/ml) or CaS1 scFv (0.5 mg/ml) or PBS were pre-incubated with C. albicans (1×10^6 cfu) for 1 hr at 37° C. After incubation, 1 ul of each mixture in 10-fold dilutions was spotted on YPD agar plate and incubated at 37° C. overnight. 10^3 cfu of C. albicans was mixed with 0 (1×PBS control), 10 or 100 µg/ml CaS1 scFv at room temperature for 1 hr. Thereafter, 1 ul of each mixture was spotted on YPD agar plate and incubated at 37° C. for 5 days. […].\nSo we further investigated whether CaS1 scFv affects the hyphal formation. We pre-incubated CaS1 scFv with C. albicans and the colony morphology was examined. […]"}}, "note": "“Also recorded” adds a separate entry of the source."}
{"molecule": "B1", "values": [{"measurement": "Binding to purified hENO1 (Western blot)", "setting": "hENO1", "result": "very little; also recorded: weak cross reactivity"}, {"measurement": "Binding to alpha-enolase on the surface of C. albicans (immunofluorescence)", "setting": "[1]", "result": "bind"}, {"measurement": "Hyphal formation", "setting": "C. albicans", "result": "very little or none were observed"}]}
